How the values were obtained:
[1] = target: DGK_(Cysless), cysless His6-tagged diacylglycerol kinase from Escherichia coli (Escherichia coli); test: anion exchange chromatography of subunit exchange
[2] = target: E5-DGK_(Cysless), cysless His6-tagged diacylglycerol kinase with a pentaglutamate tag (Escherichia coli); test: anion exchange chromatography of subunit exchange

## DGK_(Cysless), cysless His6-tagged diacylglycerol kinase from Escherichia coli (enzyme)
[1]
  half-life of subunit exchange: > 5 weeks

## E5-DGK_(Cysless), cysless His6-tagged diacylglycerol kinase with a pentaglutamate tag (enzyme)
[2]
  half-life of subunit exchange: > 5 weeks
[1]
  percent of the expected final subunit exchange after 7 days: 10%
  ratio of the mixed peaks to the pure peaks after 7 days: 0.3

Reference: PMC3839629
